Test [1] has as its target RSV prefusion F (preF), subtype B (respiratory syncytial virus, subtype B). The test is described as follows: BLI, IgG.
In test [2] the target is T1, RSV prefusion F (preF), subtype B (respiratory syncytial virus subtype B).
T1 construct: also called Prefusion subtype B
The experiment in a line: BLI, IgG.

B1: ADI-14591 (antibody, V domains shown)
VH: QVQLVQSGAEVKKPGESLRISCTGSGYTFTNYWISWVRQMPGKGLEWMGRIDPTDSYTNYSPSFQGHVTISADKSISTAYLQSSSLKASDTATYYCARHRRLVPAAMSRGYYGMDVWGQGTTVTVSS
VL: EIVMTQSPSSLSASVGDRATITCRASQSISSYLNWYQQKPGKAPKLLIYAASNLQSGAPSRFSGSGSGTDFTLTISSLQPEDFATYFCQQTYSTPYTFGQGTKVEIK
notes: also called Ab 120
The molecule B1 registered a Kd in test [1] of 0.554 nM.

B2: ADI-14428 (antibody, V domains shown)
VH: EVQLLESGGGLVKPGGSLRLSCAASGFTFSDHYMSWIRQAPGKGLEWVSYISSTSSFTNYADSLKGRFTISRDNAKNSLYLQMNSLRAEDTAVYYCARPYIVALGTRAFDIWGQGTTVTVSS
VL: SYVLTQPPSVSVAPGKTARITCGGNNIGSKTVHWYQQKPGQAPVLVSYYDSDRPSGIPERFSGSNSGNTATLTISRVEAGDEADYYCQVWDGSSEHYVFGTGTKVTVL
notes: also called Ab 94
In test [1], B2 registered a dissociation constant Kd of 14.1 nM.

B3: ADI-22756 (antibody, V domains shown)
VH: EVQLLESGGGVVQPGRSLRLSCVASGFTFSTYGVHWVRQAPGKGLEWVAVISYDGANKDYADSVKGRFTISRDNSKNTLYLQMNSLRAEDTAVYYCAKMITRVLPGGFDRWGQGTLVTVSS
VL: EIVMTQSPGTLSLSPGERATLSCRASQSVSSAYLAWYQQKPGQAPRLLIYDASRRATGIPDRFSGSGSGTDFTLTISRLEPEDFAVYYCQQYGSSRFTFGQGTKVEIK
notes: full-length IgG
B3: the Kd in test [2] came out at 55.8 nM.

B4: ADI-14588 (antibody, V domains shown)
VH: QVQLVQSGAEVKKPGASVKVSCKVSGDTLTELSIHWVRQAPGKGHEWMGYFDHEDGEIMYAQKFQGRVTMTGDTSTDTAYMELSSLRSEDTAVYYCATVAAAGQFDYWGQGTLVTVSS
VL: DIQLTQSPSSLSASVGDRVTITCRARQSISTYLNWYQQKPGKAPKLLIYAASSLQSGVPSRFSGSGSGTDFTLTISSLQPEDFATYYCQQSYSSPYTFGQGTKVDIK
B4 yielded a Kd in test [1] of 1.48 nM.

B5: ADI-14424 (antibody, V domains shown)
VH: QVQLVQSGAEVKKPGESLKISCKGPDSSFSVYWIAWVRQMPGKGLEWMGVIYVGDSDTRYSPSFRGQVTISADKSMNTAYLQWSSLKASDTAMYFCARHIPPGPFDLWGQGTMVTVSS
VL: NFMLTQPHSVSASPGKTITISCTRSSGSIASNSVQWYQQRPGSAPTNVIYEDDQRPLGVPNRFSGSIDSSSNSASLTISGLKTEDEADYYCHSYHNSDQVFGGGTKLTVL
notes: also called Ab 90
Regarding B5, the dissociation constant Kd in test [1] came out at 1.9 nM.

B6: ADI-14582 (antibody, V domains shown)
VH: QVQLVQSGAEVKKPGESLKISCKGPDSSFSVYWIAWVRQMPGKGLEWMGVIYVGDSDTRYSPSFRGQVTISADKSINTAYLQWSSLKASDTAMYFCARHIPPGPFDLWGQGTTVTVSS
VL: NFMLTQPHSVSASPGKTITISCTRSSGSIASNSVQWYQQRPGSAPTNVIYEDNQRPLGVPNRFSGSIDSSSNSASLTISGLKTEDEADYYCQSYHSSDQVFGGGTKVTVL
B6 showed a Kd in test [1] of 1.81 nM.

B7: ADI-24841 (antibody, V domains shown)
VH: QVQLVQSGAEVKKPGASVKVSCKASGYTFTSYAMHWVRQAPGQRLEWMGWINAGNGNTKYSQKFQGRVTITRDTSASTAYMELSSLRSEDTAVYYCARDGFPTNYDFWSGYSDDAFDIWGQGTMVTVSS
VL: not shown
notes: full-length IgG
In turn, B7 showed a Kd in test [2] of 26.6 nM.

B8: ADI-14363 (antibody, V domains shown)
VH: QVQLVESGGGLVKPGGSLRLSCAASGFTFSDYYMSWIRQAPGKGLEWVSYISGGGTYTKYADSVKGRFTISRDNAKNSVYLQMNSLRAEDTAVYYCARDVALVGWELRYGMDVWGQGTTVTVSS
VL: ETTLTQSPGTLSLSPGERATLSCRARENVNSSYLAWYQQKPGQAPRLLIYGASSRATGIPDRFSGSGSGTDFTLTISRLEPEDFAVYYCQQYAISPWTFGQGTKVEIK
notes: full-length IgG; also called Ab 31
In turn, B8 yielded an equilibrium dissociation constant (Kd) in test [2] of 5.35 nM.

B9: ADI-14402 (antibody, V domains shown)
VH: QVQLVQSGAEVKKPGASVKVSCKTSGYTFTNYGISWVRQAPGQGLEWMGWISAYNGNRNYAQKLQGRVTMTTDTSTSTAYMELRSLRSDDTAVYYCAREPPVIAAGDFSHWGQGTLVTVSS
VL: EIVLTQSPLSLPVTLGQPASISCRSSQSLVHSDANTYLSWFQQRPGQSPRRLIYKVSNRDSGVPDRFSGSGSGTDFTLKISRVEAEDVGVYYCMQGTHWPPDFGQGTRLEIK
notes: also called Ab 68
B9 registered an equilibrium dissociation constant (Kd) in test [1] of 0.416 nM.

B10: ADI-14583 (antibody, V domains shown)
VH: QVQLVQSGAEVKEPGASVKVSCKASGYTFTNYGISWVRQAPGQGLEWLGWISAYNGNIHYAQKVQGRVTMTTDTSTSTGFMELRSLRSDDTAVYYCAREPPVIAAGDFQHWGQGTLVTVSS
VL: ETTLTQSPLSLPVTLGQPASISCRSSQSLVHSNGNTYLSWFQQRPGQSPRRLIYRVSNRDSGVPDRFSGSGSGTDFTLKISRVEAEDVGLYYCMQGTHWPPDFGQGTRLEIK
Consider B10, for which, in test [1], the dissociation constant (Kd) amounted to 1.59 nM.

B11: ADI-14585 (antibody, V domains shown)
VH: QVQLVQSGAEVKKPGASVKVSCKASGYTFANYGIGWVRQAPGQGLEWMGWISAYNGKTNYAQKFQGRVTMTTDTSTSTAYMELRSLRSDDTAVYYCAREPPVIAAGDFPHWGQGTLVTVSS
VL: ETTLTQSPLSLPVTLGQPASISCRSSQSLEHSDLNTYLSWFQQRPGQSPRRLIYKVSNRDSGVPDRFSGSGSGTDFTLRISRVEAEDVGVYYCMQGTHWPPDFGQGTRLEIK
In turn, B11 had an equilibrium dissociation constant (Kd) in test [1] of 0.449 nM.

B12: ADI-25491 (antibody, V domains shown)
VH: EVQLLESGPGLVKPSQTLSLTCTVSGGSISSGGYYWSWIRQHPGKGLEWIGYIYYSGSTYYNPSLKSRVTISVDTSKNQFSLKLSSVTAADTAVYYCAREVVPAAIRAGYYFDYWGQGTLVTVSS
VL: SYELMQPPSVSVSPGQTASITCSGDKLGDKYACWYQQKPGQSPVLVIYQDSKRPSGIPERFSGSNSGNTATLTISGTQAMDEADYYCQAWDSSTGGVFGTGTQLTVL
notes: full-length IgG
In test [2], B12 registered a Kd of 21.9 nM.

B13: ADI-14601 (antibody, V domains shown)
VH: EVQLLESGGGLVQPGGSLRLSCAASGFTFSSYAMNWVRQAPGKGLEWVSTISGSGSSTYYADSVEGRFTISRDNSKNTLYLQMNSLRAEDTAIYYCAKEPRDMYIQQWLDSWGQGTLVTVSS
VL: GIRLTQSPSSVSASVGDRVIITCRASQGIRSWLAWYQQKPGKAPKLLIYAASRLQSGVPSRFSGSGSETDFTLTISSLQPEDFASYYCQQANSFPLTFGGGTKVEIK
As for B13, in test [1], binding was put at a Kd of 1.96 nM.

B14: ADI-14581 (antibody, V domains shown)
VH: QVQLVQSGAEVKKPGSSVKVSCKASGGTFSSHAFSWVRQAPGQGLEWMGGIIPSLNTANYAQKFQGRVSITADESTGTAYMELSSLRSDDTAVYFCAREVFGYGYYFDYWGQGTLVTVSS
VL: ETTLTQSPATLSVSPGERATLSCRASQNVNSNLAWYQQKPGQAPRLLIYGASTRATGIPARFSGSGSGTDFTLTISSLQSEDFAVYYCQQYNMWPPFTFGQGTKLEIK
notes: also called Ab 110
Consider B14, for which the Kd in test [1] was determined as 2.88 nM.

B15: ADI-25518 (antibody, V domains shown)
VH: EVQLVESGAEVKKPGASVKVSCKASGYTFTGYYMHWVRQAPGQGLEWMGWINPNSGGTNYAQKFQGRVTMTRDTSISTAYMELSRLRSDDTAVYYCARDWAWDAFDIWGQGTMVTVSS
VL: QSVLIQPASVSGSPGQSITISCTGTSSDVGGYNYVSWYQQHPGKAPKLMIYDVSNRPSGVSNRFSGSKSGNTASLTISGLQAEDEADYYCSSYTSSSTLVFGGGTQLTVL
notes: full-length IgG
Take B15: in test [2], binding was characterised by a dissociation constant (Kd) of 39.5 nM.

B16: ADI-14403 (antibody, V domains shown)
VH: QVQLVESGGGLGKPGGSLRLSCAASGFTFSGYYMSWIRQAPGKGLEWVSDISSGSSFTNYADSVKGRFTISRDNAKNSLYLQMNSLKAEDTAVYYCARVPPDSYGSGSYSGDSWGQGTLVTVSS
VL: QSVVTQPPSVSGAPGQRVTISCTGSSSNIGAGYGVHWYQQLPGTAPKLLIYGNTNRPSGVPDRISGSKSGTSASLVITGLQAEDEADYYCQSYDSSLSGWVFGGGTKLTVL
notes: also called Ab 69
As to B16, binding in test [1] was characterised by a dissociation constant (Kd) of 0.699 nM.

B17: ADI-14586 (antibody, V domains shown)
VH: QVQLVQSGGGLVKPGGSLRLSCAASGFTFSDYYMSWIRQAPGKGLEWVSYISSSSSYTNYADSVKGRFTISRDNAKNSLYLQMNSLRAEDTAVYYCAKRTEYCSSTGCAYYFDYWGQGTLVTVSS
VL: QSVVTQPPSVSGAPGQRVTISCTGSSSNIGAGYDVHWYQQLPGTAPKLLIYGNSNRPSGVPDRFSGSKSGTSASLAITGLQAEDEADYYCQSYDSSLSGSVFGGGTKVTVL
With B17, the equilibrium dissociation constant (Kd) in test [1] turned out to be 6.7 nM.

B18: ADI-14587 (antibody, V domains shown)
VH: EVQLLESGGGLVKPGGSLRLSCAASGFTLTSYSMNWVRQAPGKGLEWVSSISSSSSYIHYADSVKGRFTISRDNAKNSLYLQMNSLRAEDTAVYYCAGSSLYPPFFDYWGQGTLVTVSS
VL: QSVVTQPPSVSGAPGQRVTISCTGSSSNLGAGYDVHWYQQLPGTAPKLLIYGNNNRPSGVPDRFSGSKSGTSASLAITGLQAEDEADYYCQSYDSSLSSVVFGGGTKLTVL
B18 showed a Kd in test [1] of 0.833 nM.

B19: ADI-24798 (antibody, V domains shown)
VH: EVQLLESGPGLVKPSETLSLTCTVSGGSISSYYWSWIRQPPGKGLEWIGYIYYSGSTNYNPSLKSRVTISVDTSKNQFSLKLSSVTAADTAVYYCARILGHCSGGSCYRIIDYWGQGTLVTVSS
VL: not shown
notes: full-length IgG
For B19, in test [2], binding was characterised by a dissociation constant (Kd) of 5.27 nM.

B20: ADI-14580 (antibody, V domains shown)
VH: QVQLVQSGAEVKKPGSSVKVSCKASGGTFSSYTINWVRQAPGQGLEWMGRIIPVLGMASYVQNFQGRVSITADESTSTAYMELSSLTSEDTALYYCAKGAVAAANDVFDVWGQGTTVTVSS
VL: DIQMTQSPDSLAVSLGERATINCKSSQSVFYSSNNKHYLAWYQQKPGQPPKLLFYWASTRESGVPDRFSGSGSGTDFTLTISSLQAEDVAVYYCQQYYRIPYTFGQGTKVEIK
In the case of B20, the Kd in test [1] is 4.54 nM.

B21: ADI-14412 (antibody, V domains shown)
VH: QVQLVQSGAEVKKPGASVKVSCKASGYTFTRYGISWVRQAPGQGLEWMGWISDYNGNTKNAEKFQGRVTMTTDTYTNIAYMELRSLRSDDTAVYYCARDWWITVGGIIAPFDYWGQGTLVTVSS
VL: ETTLTQSPGTLSLSPGERATLSCRASQSVSSDYLAWFQQKPGQAPRLLIYGASSRATDIPDRFSGSGSGTDFTLTISRLESEDFAVYYCLHYAGARTFGQGTKVEIK
notes: also called Ab 78
Consider B21, for which the Kd in test [1] came out at 13.4 nM.

B22: ADI-24854 (antibody, V domains shown)
VH: EVQLVESGGGLVKPGGSLRLSCAASGFTFSSYSMNWVRQAPGKGLEWVSSISSSSSYIYYADSVKGRFTISRDNAKNSLYLQMNSLRAEDTAVYYCARDRRFGELFYFDYWGQGTLVTVSS
VL: QSVLTQPPSVSGAPGQRVTISCTGSSSNIGAGYDVHWYQQLPGTAPKLLIYGNSNRPSGVPDRFSGSKSGTSASLAITGLQAEDEADYYCQSYDSSLSGNWVFGGGTKLTVL
notes: full-length IgG
B22 registered an equilibrium dissociation constant (Kd) in test [2] of 30.3 nM.

B23: ADI-14380 (antibody, V domains shown)
VH: QVQLVQSGAEVKKPGESLKISCKGSGYTFTSYWIGWVRQLPGKGLEWMGVIFPGDSDTRYSPSFQGQVTISADKSISTAYLQWSSLKAADTAMYYCARTRLGRGFYRFDSWGQGTLVTVSS
VL: QSVLTQPPSVSAAPGQKVTISCSGSSSNIGNNYVSWYQQLPGTAPRLLIYENNERPSGIPDRFSGSKSGTSATLGITGLQTGDEADYYCATWDSGLSAGYVFGTGTKLTVL
notes: full-length IgG; also called Ab 48
Take B23: the Kd in test [2] is 10.8 nM.

Source of the values: US20260258115A1 (MAPP BIOPHARMACEUTICAL, published 2026).
